# B1: PB11 scFv-Fc (scFv, V domains shown)
# VH: QVQLVQSGAEVKKPGASVKISCKASGYTLGTYTLHWMRQAPGQRIEWMGWINPGNGYTKYSQRFQGRVTINRDTSATTTYMELSSLRSEDTAVYFCATDRAPVRRAFDIWGQGTMVTVSS
# VL: QSVLTQPASVSGSPGQSVTISCTGTSSDIGSYKFVSWYQHHPGKAPKLMIYDVTQRPSGVPYRFSGSKSGNTASLTISGLQAEDEADYYCCSYAGDYTYALFGGGTQLTVL
# notes: Used as scFv-Fc in the staining
# B2: TZ47 (antibody, V domains shown)
# VH: QVQLQQSGAELMKPGASVKLSCKATGYTFTGYWIEWIKQRPGHGLEWIGEILPGTGSTNYNEKFKGKATFTADTSSNTAYMQLSSLTTEDSAIYYCAIPGPMDYWGQGTSVTVSS
# VL: DIKMTQSPSSMYASLGERVTITCKASQDINSYLSWFQQKPGKSPKTLIYRANRLVDGVPSRFSGSGSGQDYSLTISSLEYEDMGIYYCLQYDEFPYTFGGGTKLEIK
# notes: Murine antibody; detected with an anti-mouse AlexaFluor488 secondary antibody
# Biological target: T1, B7H6 (wild type) (human, UniProt Q68D85)
# T1 construct: B7H6, human tumor antigen; complete extracellular and transmembrane domains; The results call it the full-length transmembrane protein, the methods complete extracellular and transmembrane domains; also called WT B7H6; WT Ag; source: HEK-293F, transfected (pPPI4 surface expression vector, polyethyleneimine), on the cell surface
# Assay: flow cytometry on cells; HEK-293F cells expressing WT B7H6 or designed variants, 2.5x10^5 cells/well; 100 nM TZ47, PB11 scFv-Fc or NKp30-Ig for 1 hr in PBS + 0.1% BSA; Anti-Mouse-AlexaFluor488 or Anti-Hu-AlexaFluor647 secondary Abs; integrated MFI normalised to NKp30-Ig binding and to WT B7H6; triplicate wells
# Settings: one partner purified
# T1 sequence (Q68D85 25-262): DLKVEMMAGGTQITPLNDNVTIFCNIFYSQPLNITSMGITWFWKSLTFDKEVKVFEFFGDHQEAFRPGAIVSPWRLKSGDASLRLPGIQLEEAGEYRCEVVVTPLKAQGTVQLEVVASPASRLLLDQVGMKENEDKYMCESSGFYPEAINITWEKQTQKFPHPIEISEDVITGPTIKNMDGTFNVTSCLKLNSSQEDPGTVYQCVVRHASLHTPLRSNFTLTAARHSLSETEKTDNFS
row,Binder,binding result
1,B1,binds
2,B2,binds
